{
  "source": "patent US20210292761",
  "about": "“COMPOSITIONS COMPRISING CIRCULAR POLYRIBONUCLEOTIDES AND USES THEREOF” (FLAGSHIP PIONEERING INNOVATIONS VI, LLC, published 2021)",
  "key": {"[1]": {"tested_on": "NF-kB (endogenous, A549 cells) (Homo sapiens)", "assay": "cell_activity", "settings": "A549, day 2 (89% day 1); 1 pmol transfected; indirect evidence of binding"}, "[2]": {"target": "T1, NF-kB p50 subunit (NFKB1) (UniProt P19838 P19838:1-433)", "T1 sequence (P19838 1-433, one chain of several)": "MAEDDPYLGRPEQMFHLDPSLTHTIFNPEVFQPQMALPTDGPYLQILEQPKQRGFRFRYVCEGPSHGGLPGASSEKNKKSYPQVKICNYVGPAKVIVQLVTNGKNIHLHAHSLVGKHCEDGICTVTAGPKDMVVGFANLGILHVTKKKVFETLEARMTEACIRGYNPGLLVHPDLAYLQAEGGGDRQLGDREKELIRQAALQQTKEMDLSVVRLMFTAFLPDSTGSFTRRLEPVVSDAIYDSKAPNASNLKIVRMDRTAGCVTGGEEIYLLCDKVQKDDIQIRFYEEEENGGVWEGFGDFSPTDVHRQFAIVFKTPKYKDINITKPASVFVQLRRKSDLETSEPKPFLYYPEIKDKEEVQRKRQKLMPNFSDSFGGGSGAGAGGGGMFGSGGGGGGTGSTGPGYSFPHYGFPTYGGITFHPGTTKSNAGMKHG", "assay": "EMSA; 1 pmol RNA, 0-10 pmol p50; 20 mM Tris-HCl pH 8.0, 50 mM NaCl, 1 mM MgCl2, RT 20 min; affinity similar to linear", "settings": "tags: Cayman Chemical 10009818; chain copies: 2; circular (ligated with RNA ligase 1), aptamer hairpin with poly(A) flanks; printed with T, is RNA", "method": "(§1) Electrophoretic mobility shift assay (EMSA) was performed to assess circular RNA binding affinity to NF-kB. One pmole of linear or circular RNA was incubated with recombinant NF-kB p50 subunit (Caymen Chemical, 10009818) at varying concentrations over the RNA concentration (i.e., 0, 0.1, 1, 10 pmoles of protein) for 20 minutes at room temperature in a buffered reaction (20 mM Tris-HCl, pH 8.0, 50 mM NaCl, 1 mM MgCl2). Samples were run a 6% TBE Urea gel for 25 minutes at 200V. Gels were stained with SybrGold (Thermo Scientific, S11494) and imaged with a blue E-gel imaging system (Thermo Scientific, 4466612)."}, "[3]": {"target": "T1, NF-kB p50 subunit (NFKB1)", "assay": "EMSA; 1 pmol RNA, 0-10 pmol p50; 20 mM Tris-HCl pH 8.0, 50 mM NaCl, 1 mM MgCl2, RT 20 min; affinity similar to circular", "settings": "tags: Cayman Chemical 10009818; chain copies: 2; linear; printed with T, is RNA", "method": "as §1"}, "[4]": {"target": "T1, NF-kB p50 subunit (NFKB1)", "assay": "EMSA; scrambled control, same buffer", "settings": "tags: Cayman Chemical 10009818; chain copies: 2; hairpin; printed with T, is RNA", "method": "as §1"}},
  "data": [
    {"molecule": "AAAAAAAAAAGAUCUUGAAACUGUUUUAAGGUUGGCCGAUCUUAAAAAA [circular NF-kB aptamer RNA]", "values": [
      {"measurement": "activity", "setting": "[1]", "result": 86, "unit": "% viability"}
    ]},
    {"molecule": "AAAAAAAAAAGAUCUUGAAACUGUUUUAAGGUUGGCCGAUCUUAAAAAA (ssRNA)", "note": "[circular NF-kB aptamer RNA]", "values": [
      {"measurement": "binding result", "setting": "[2]", "result": "binds"}
    ]},
    {"molecule": "AAAAAAAAAAGAUCUUGAAACUGUUUUAAGGUUGGCCGAUCUUAAAAAA (ssRNA, 5' monophosphate)", "note": "[linear NF-kB aptamer RNA]", "values": [
      {"measurement": "binding result", "setting": "[3]", "result": "binds"}
    ]},
    {"molecule": "scrambled control RNA (ssRNA) RNA: AAAAAAAUUCUCCGAACGUGUCACGUUUCAAGAGAACGUGACACGUUCGGAGAAAAAAAA", "values": [
      {"measurement": "binding result", "setting": "[4]", "result": "no binding"}
    ]}
  ]
}
